In patent US10465009B2, “BCMA antigen binding proteins” (Amgen Inc., priority 2012, dated 2019):

What was measured:
BCMA = molecular target: T1, BCMA (Homo sapiens, UniProt Q02223, N81S); assay: FACS binding on cells transiently transfected to express full length BCMA; conditions: MFI vs negative control
T1 construct: cells transiently transfected to express full length BCMA, TACI, or BAFF-R; expressed in transfected cells
T1 sequence (Q02223 1-184 N81S): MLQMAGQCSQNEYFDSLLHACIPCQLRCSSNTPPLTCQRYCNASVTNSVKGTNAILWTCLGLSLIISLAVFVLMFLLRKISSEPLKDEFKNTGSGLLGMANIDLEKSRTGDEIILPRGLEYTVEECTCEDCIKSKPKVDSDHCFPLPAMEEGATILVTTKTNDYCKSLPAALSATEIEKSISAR
Method: An important criterion is exquisite selectivity for wild-type human BCMA expressed on the surface of cells. FACS binding on cells transiently transfected to express full length BCMA, TACI, or BAFF-R was performed using standard techniques. Approximately 40×10^6 of the transiently-transfected target cells were resuspended in a staining solution (2% goat serum, 1% rabbit serum, 0.02% azide in PBS) and aliquoted into round-bottom, 96-well plate (Corning Incorp., Acton, Mass.) as per the experiment design. The cells were incubated at 4 degrees celsius for 30 minutes to block non-specific sites. The antibodies were titrated into the staining solution. The cells were rinsed in a rinse solution (PBS+0.02% azide) by resuspending the cells in 200 ul/well. The cells were centrifuged at 1500 rpm at 4 degrees celsius for 7 minutes. The rinse solution was removed and the rinse step was repeated. The cells were resuspended in the appropriate antibody solution (see the matrix in TABLE 4) at 30 ul/well and incubated at 4 degrees celsius for 30 minutes. […] For the mouse IgG1 negative control and the two mouse antibodies (1.183 and 1.288), the secondary reagent was an anti-mouse IgG-PE conjugate (BD Pharmingen Cat. 550589). The cells/antibodies were rinsed as described above to remove excess/unbound antibody. […] Samples were read at 532 nm wavelength on FACS. […]

huBCMA on H929 cells = molecular target: T2, huBCMA on H929 cells (Homo sapiens, UniProt Q02223, N81S); assay: FACS binding to native BCMA on H929 myeloma cells; conditions: flow cytometry; muteins relative to parental 2A1
T2 construct: endogenous in cells; host or cells: H929 human multiple myeloma cell line
T2 sequence (Q02223 1-184 N81S): T1 sequence (Q02223 1-184 N81S)
Method: Approximately 10 to 40×10^6 of H929 myeloma cells were resuspended in a staining solution (2% goat serum, 1% rabbit serum, 0.02% azide in PBS) and aliquoted into round-bottom, 96-well plate (Corning Incorp., Acton, Mass.) as per the experiment design. The cells were incubated at 4 degrees celsius for 30 minutes to block non-specific sites. The antibodies were titrated into the staining solution. The cells were rinsed in a rinse solution (PBS+0.02% azide) by resuspending the cells in 200 ul/well. The cells were centrifuged at 1500 rpm at 4 degrees celsius for 7 minutes. The rinse solution was removed and the rinse step was repeated. […] The huIgG1 negative control's secondary reagent was a biotinylated anti-huIgG (Jackson Labs, Bar Harbor, Me., Cat. 109-065-098), followed by a streptavidin-phycoerythrin (SA-PE) conjugate (BD Pharmingen, San Diego, Calif., Cat. 554061). […] The cells/antibodies were rinsed as described above to remove excess/unbound antibody. […] Samples were read at 532 nm wavelength on FACS.
To further characterize the engineered mutein antibodies, they were tested for the ability to bind BCMA by FACS analysis. […] The supernatants were removed and the cell pellets were resuspended in 0.2 mL/tube 4% paraformaldehyde in PBS and analyzed by flow cytometry

binding to BCMA on H929 cells (huBCMA on H929 cells): bound to human BCMA
B1: 1E1: fully human anti-huBCMA mAb, Vh SEQ ID NO:212, Vl SEQ ID NO:246 (antibody, V domains shown)
VH: QVQLVQSGAEVKKPGASVKVSCKASGYTFTGHYIHWVRQAPGQGLEWMGWIYPNSGGTNYAQKFQGRVTMTRDTSISTAYMELSRLRSDDSAVYYCAREGMVTGDYYYYRMDVWGQGTTVIVSS
VL: QPVLTQPPSASASLGASVTLTCSLSSGYSNYKVDWYQQRPGKGPRFVMRVGIGGIVGSKGDGIPDRFSVLGSGLNRYLTIKNIQEEDESDFHCGADHGSGNNFVYVFGTGTKVTVLG
BCMA (FACS binding) (BCMA): + (A sample was considered positive for binding if the MFI was two times the negative control value)
